This assay deals with truncated form of ribosomal protein L2 (E. coli) (UniProt P60422). Nature of the assay: ELISA. (In general: ELISA stands for enzyme-linked immunosorbent assay.)

DnaAΔ129 lacking the N-terminal 129 residues, sequence (P03004 130-467, stated change not applied): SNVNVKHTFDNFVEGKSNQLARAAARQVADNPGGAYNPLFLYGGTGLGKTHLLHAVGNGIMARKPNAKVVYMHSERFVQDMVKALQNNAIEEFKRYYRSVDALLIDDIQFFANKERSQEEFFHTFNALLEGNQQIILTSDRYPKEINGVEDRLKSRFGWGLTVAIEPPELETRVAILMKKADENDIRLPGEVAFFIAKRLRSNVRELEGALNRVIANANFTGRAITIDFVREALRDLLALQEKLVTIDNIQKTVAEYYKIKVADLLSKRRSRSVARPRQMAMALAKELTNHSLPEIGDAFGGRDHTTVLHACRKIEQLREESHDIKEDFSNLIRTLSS

As for “DnaAΔ129 lacking the N-terminal 129 residues (from UniProt P03004 130-467) (domain or fragment)”, the fold reduction of the interaction against wild-type DnaA is 4 fold.

(Values after paper PMC3105425.)
